From PMC2788523, “Overexpression and characterization of medium-chain-length polyhydroxyalkanoate granule bound polymerases from Pseudomonas putida GPo1” (Microbial Cell Factories, 2009) come the findings set out here.

Substrate in this data set: CCCCC[C@@H](O)CC(=O)SCCNC(=O)CCNC(=O)[C@H](O)C(C)(C)COP(=O)(O)OP(=O)(O)OC[C@H]1O[C@@H](n2cnc3c(N)ncnc32)[C@H](O)[C@@H]1OP(=O)(O)O
Nature of the data set: cells, lysate or membranes. The format is biochemical, Ectopseudomonas oleovorans. Particulars: granule-bound enzyme (isolated PHA granules), 100 mM Tris-HCl pH 8, 1 mg/ml BSA, 0.5 mM MgCl2, substrate 0.0375-0.25 mM.

B1: PhaC2 (PHA polymerase 2), granule-bound (Ectopseudomonas oleovorans) (protein)
chain: MKDKPAKGTPTLPATSMNVQNAILGLRGRDLISTLRNVSRQSLRHPLHTAHHLLALGGQLGRVILGDTPLQPNPRDPRFSDPTWSQNPFYRRGLQAYLAWQKQTRLWIEESHLDDDDRARAHFLFNLINDALAPSNSLLNPLAVKELFNSGGQSLVRGVAHLLDDLRHNDGLPRQVDERAFEVGGNLAATAGAVVFRNELLELIQYKPMSEKQHARPLLVVPPQINKFYIFDLSSTNSFVQYMLKNGLQVFMVSWRNPDPRHREWGLSSYVQALEEALNACRSISGNRDPNLMGACAGGLTMAALQGHLQAKHQLRRVRSATYLVSLLDSKFESPASLFADEQTIEAAKRRSYQRGVLDGAEVARIFAWMRPNDLIWNYWVNNYLLGKTPPAFDILYWNADSTRLPAALHGDLLDFFKLNPLTHPAGLEVCGTPIDLQKVELDSFTVAGSNDHITPWDAVYRSALLLGGDRRFVLANSGHIQSIINPPGNPKAYYLANPKLSSDPRAWLHDAKRSEGSWWPLWLEWITARSGPLKAPRSELGNATYPPLGPAPGTYVLTR
notes: overexpressed from pGEc404 in PHA-negative P. putida GPp104; assayed on isolated PHA granules (other granule proteins present)
Turning to B1, the Michaelis constant (Km) came out at 37 ± 10 µM.

B2: PhaC1 (PHA polymerase 1), granule-bound (Ectopseudomonas oleovorans) (protein)
chain: MSNKNNDELQRQASENTLGLNPVIGIRRKDLLSSARTVLRQAVRQPLHSAKHVAHFGLELKNVLLGKSSLAPESDDRRFNDPAWSNNPLYRRYLQTYLAWRKELQDWIGNSDLSPQDISRGQFVINLMTEAMAPTNTLSNPAAVKRFFETGGKSLLDGLSNLAKDLVNNGGMPSQVNMDAFEVGKNLGTSEGAVVYRNDVLELIQYKPITEQVHARPLLVVPPQINKFYVFDLSPEKSLARYCLRSQQQTFIISWRNPTKAQREWGLSTYIDALKEAVDAVLAITGSKDLNMLGACSGGITCTALVGHYAALGENKVNALTLLVSVLDTTMDNQVALFVDEQTLEAAKRHSYQAGVLEGSEMAKVFAWMRPNDLIWNYWVNNYLLGNEPPVFDILFWNNDTTRLPAAFHGDLIEMFKSNPLTRPDALEVCGTPIDLKQVKCDIYSLAGTNDHITPWQSCYRSAHLFGGKIEFVLSNSGHIQSILNPPGNPKARFMTGADRPGDPVAWQENATKHADSWWLHWQSWLGERAGELEKAPTRLGNRAYAAGEASPGTYVHER
notes: overexpressed from pGEc405 in PHA-negative P. putida GPp104; assayed on isolated PHA granules (other granule proteins present)
B2: the Michaelis constant (Km) was found to be 125 ± 35 µM.

Broadly, the Km is the substrate concentration at which the rate is half of its maximum.
